Tests used:
[1] = molecular target: GDP-mannose transporter Vrg4 from Candida albicans (Candida albicans, UniProt Q5A477)
[2] = molecular target: T1, Avi-tagged, biotinylated GDP-mannose transporter Vrg4 from Candida albicans (Candida albicans (SC5314 entry Q5A477), UniProt Q5A477); assay: ELISA; settings: both partners purified
T1 construct: also called biotinylated CaVrg4; source: S. cerevisiae strain BJ5460, purified as the untagged version, biotinylated using BirA ligase; not shown: Avi tag, C-terminal, kept
T1 sequence (Q5A477 34-371, one chain of several): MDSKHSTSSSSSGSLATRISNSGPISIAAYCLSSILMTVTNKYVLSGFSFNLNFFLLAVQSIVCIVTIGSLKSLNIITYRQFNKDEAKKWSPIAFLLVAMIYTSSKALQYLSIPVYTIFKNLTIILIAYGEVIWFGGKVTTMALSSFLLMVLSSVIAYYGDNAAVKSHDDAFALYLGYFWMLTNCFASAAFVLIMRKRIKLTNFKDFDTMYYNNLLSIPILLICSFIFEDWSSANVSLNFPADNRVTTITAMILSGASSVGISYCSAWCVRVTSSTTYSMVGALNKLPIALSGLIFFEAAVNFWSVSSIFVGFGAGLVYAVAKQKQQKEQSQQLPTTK

Chain of GDP-mannose transporter Vrg4 from Candida albicans (Q5A477 34-371): as the sequence (Q5A477 34-371, one chain of several) above

B1: NB1 (VHH)
VHH: QVQLVESGGGLVQPGGSLRLSCAASGTSFTINVMAWYRQAPGKQRELVAGITSGGTTNYADAVKGRFAITSDNAKNTVYLQMNGLKSEDTAVYYCNAATTVPYPDYGFSLGTYDYEAWGQGTQVTVSS
B1 gave a Kd [1] of 109 nM.

B2: nanobody NB3 (VHH)
VHH: QVQLVESGGGLVQPGGSLRLSCAASGSISEINVMGWYRQAPGKQRELVARITTGGSTNYADSVKGRFTISRDNAKNTVYLQMNSLKPEDTAVYMCNAHRRVVMEWGPLGYDYWGQGTQVTVSS
notes: not shown: Myc, C-terminal, kept; His, C-terminal, kept
In the case of B2, the Kd [2] is reported as roughly 3 nM.

B3: NB2 (VHH)
VHH: QVQLVESGGGLVQPGGSLRLSCAASRIKRNIMSMGWYRQAPGKQRELVATLLRGGVTNYADSVKGRFTISRDNAKNTLYLQMNSLKPEDTAVYYCTLKEQMFDTTYWGQGTQVTVSS
B3 gave a Kd [1] of 125 nM.

B4: nanobody NB4 (VHH)
VHH: QVQLVESGGGLVQAGGSLRLSCAASGRTFRSYTLGWFRQAPGKEREFVAAIKWSTDTTYYADSVKGRFTISGDNAKNTVYLQMNSLKPEDTAVYFCAARSLSTVIAGPEIPWPYNSWGQGTQVTVSS
notes: as for B2
B4 showed a Kd [2] of roughly 10 nM.
